Measurements: publication PMC6825267
Read-outs that look alike come from different tables or passages of the source.

Tests used:
Experiment in all cases: EMSA
[1] = target: T1, HIN1 1-267 (N-terminal, MYB/SANT domains) (Arabidopsis thaliana, UniProt F4J686 1-267)
T1 sequence: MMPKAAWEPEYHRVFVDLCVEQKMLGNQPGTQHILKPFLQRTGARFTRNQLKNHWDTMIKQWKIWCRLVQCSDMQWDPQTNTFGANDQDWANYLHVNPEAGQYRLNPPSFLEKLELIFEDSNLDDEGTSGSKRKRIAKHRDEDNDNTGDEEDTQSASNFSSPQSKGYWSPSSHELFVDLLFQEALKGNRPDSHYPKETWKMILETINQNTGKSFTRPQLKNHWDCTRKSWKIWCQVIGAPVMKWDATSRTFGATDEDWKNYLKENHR

RZ-1C [2] = target: T2, RZ-1C (Arabidopsis thaliana, UniProt Q8RWN5 1-310)
T2 sequence: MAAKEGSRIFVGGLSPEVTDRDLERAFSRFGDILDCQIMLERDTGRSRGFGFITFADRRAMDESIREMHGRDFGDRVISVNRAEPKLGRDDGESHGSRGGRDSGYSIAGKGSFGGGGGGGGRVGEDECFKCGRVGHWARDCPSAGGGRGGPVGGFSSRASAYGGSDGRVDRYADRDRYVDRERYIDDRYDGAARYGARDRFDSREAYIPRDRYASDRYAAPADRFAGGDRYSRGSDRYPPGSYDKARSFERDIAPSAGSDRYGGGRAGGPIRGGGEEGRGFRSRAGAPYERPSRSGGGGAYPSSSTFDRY

[3] = target: T1, HIN1 1-267 (N-terminal, MYB/SANT …); remark: listed apart in the source
RZ-1C [4] = target: T2, RZ-1C; remark: listed apart in the source

Row | Binder | binding result [1] | binding result (RZ-1C [2]) | binding result [3] | binding result (RZ-1C [4])
1 | UUUCGAGAAGAAGAAGACAUC (ssRNA) [M probe (GAA repeat, AT1G50740 intron 1 flank)] | binds | binds |  | 
2 | UUUCGACUUGAAGAUCUCAUC (ssRNA) [M2 probe (motif reduced to GAAGA)] |  |  | no binding | no binding
3 | UUUCGACUUCUUCUUGACAUC (ssRNA) [U probe (GAA repeat to CUU)] | no binding | no binding |  | 
